According to publication PMC10101095, “The Oxidative Stress-Induced Hypothetical Protein PG_0686 in Porphyromonas gingivalis W83 Is a Novel Diguanylate Cyclase” (Microbiology Spectrum, 2023):
Where “and” joins values, the source holds several entries; their conditions need not be identical. Identical values can stand only once.

Experiments:
[1] = target: the molecule itself; assay: SEC; Superdex 200 10/300 GL, 100 uL of 0.2 mg/mL rPG_0686, mobile phase 0.15 M ammonium bicarbonate, 0.1 mL/min; sizes calculated against Bio-Rad 1511901 protein standard
[2] = target: the molecule itself; assay: native gel or EMSA; native-PAGE of purified rPG_0686 / SEC fractions, with immunoblot

B1: recombinant PG_0686 (rPG_0686) protein of Porphyromonas gingivalis W83 (enzyme, UniProt Q7MWD6 1-517, looked up)
chain: MQVIKTNETFDSLDKSKLERMLDIKEAHREGHLTLEEAKERMKKEVGSISPEEFAAAEQLFKERDQDECQNEDVRTMLQLFEGLINPIRPDLPFGHPIDAYLRENDKAKELLDQADALLERTFIPNPWIELMETLMGYKLHFARKQNQLYSTLEQKGFDRPSTTMWTYDDHIRDEMNKAMSLLREKDYDSFPAAYKEMAIVLRDLMEKEELILYPTSLKLISDKEFEEMKHGDREIGFFLIDMPELDAPAKQSKEAHGQSFMAELGALLAKHGMGTGGQDDKAILDVAEGKLTLEQINLLFRHLPVDISFVDENELVCFYTDTKHRVFPRSKGVIGREVRNCHPPKSVHIVEEIIDKFRRGEQDRAEFWINKPGVFIYIVYVAIRDADGRFRGVMEMMQDCTRIRSLEGSRTLLTWDEEQSPAQGSKESESDTAGEDGIRPDTKLKSLLQRYPQLMDDLPTISSKFTLLRSPMAKVILPVATIKMMSERADIPSDMLIGKLESLIASYNKPDRSEEK
notes: PG_0686, hypothetical protein / diguanylate cyclase of Porphyromonas gingivalis W83; 517 amino acids, 60 kDa; the ORF of the PG_0686 gene cloned in-frame into pEXP5-NT/TOPO; domains hemerythrin (96-215), PAS10 (297-402), DUF-1858 (421-497); Number of copies in the native oligomer differs by method (SEC: decamer and pentamer; native-PAGE: octamer and tetramer); The vector pEXP5-NT/TOPO probably …
stoichiometry N [1]: 10 and 5 | stoichiometry N [2]: 8 and 4
